The source of these data is the supplement of paper PMC12042874.

± gives the uncertainty stated by the source.

The data set in a line: amyloid nucleation score (Sup35N fusion, yeast selection) (log enrichment); library NNK3; higher = more nucleation; inactive = no reads after selection. In outline: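 Libraries of peptides of 20 random codons fused to Sup35N were expressed in psi-negative yeast and induced 24 hours with 100 μM copper sulfate. Selection was 7 days at 30°C on medium lacking adenine and uracil, and plasmid inserts were Illumina-sequenced before and after selection. Nucleation score is the DiMSum log enrichment of output over input reads, centred on the mode score of non-aggregating sequences, and sequences with under 100 input reads were left out.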
For the substance EEMLRHCHKIRERWGSKSFE, the amyloid nucleation score entry was “inactive”. To RQVVRSTLRLSWSIFLYSYM belongs “inactive”. For CYGLSRCTRAEAMCPKG, the amyloid nucleation score result was “inactive”. As to LQFVMLRTWVLRSRGTQAVT, the amyloid nucleation score turned out to be 0.592 ± 0.21.

Turning to FLSYLSSIPAPYLNGSAGTT, the amyloid nucleation score entry is “inactive”.

Regarding LITGLDLPGIWHTVYSYYSV, the amyloid nucleation score entry is “inactive”. With WCLPNCPIVFNMHQLAHLSR, the amyloid nucleation score is 0.021 ± 0.44. With LHTSTTPKTMKRRSQLSNQK, the amyloid nucleation score result is “inactive”. As to CLSLFTSGIV, the amyloid nucleation score result was “inactive”. With SFPKYRSNEDFPMDIRCNSS, the amyloid nucleation score result is “inactive”. As for YTIALTRGLKFMVINCRTFY, the entry is “inactive”. As for LELLRTERKRMKCLKPVLRV, the entry is “inactive”. On to NTIDYHYKVSCSHGYSLQSY, for which the amyloid nucleation score entry was “inactive”.

DSVRASSLLWMFWCIVEFHG: the amyloid nucleation score entry is “inactive”. As to CWNDSLLCYMSSTMGNVQTT, the amyloid nucleation score result was “inactive”. Take FVPNVRLTDLWRANKGIVSH: the amyloid nucleation score worked out at 0.404 ± 0.38.

Turning to SIQCSK, the amyloid nucleation score entry is “inactive”. To NVAFQCQKLTLLKGKLEPDR belongs 0.272 ± 0.93. In the case of NFSETSAKYHVTSRGFSSSR, the amyloid nucleation score came out at 0.456 ± 0.21. Turning to YAALILGVVQCAGLILFYVI, the amyloid nucleation score result is “inactive”. For the substance KYNHIYVYKSIRCVQGVLDG, the amyloid nucleation score entry was “inactive”. Regarding LRNLVTWRVQSKWFSIQSSW, the amyloid nucleation score result was “inactive”. Regarding ISIFRRTGFAWFWENV, the amyloid nucleation score entry is “inactive”. To WVSSFTVAWKGGKQRVITVE belongs “inactive”; to SCVGNLENTIYNMVVRNCCY, “inactive”.

As for YTVSFYIQLCTDRQISHRGI, the amyloid nucleation score turned out to be 2.34 ± 0.071. PCLSDPSYIELNKLASVFTG: the amyloid nucleation score entry is “inactive”.

VGQFVRGLVKLCNGMYYWWL: the amyloid nucleation score entry was “inactive”. In the case of HRIVSFYRNSWVPSIFVYED, the amyloid nucleation score entry is “inactive”. As for VVLTMMHRHLYVSCKLRFCS, the entry is “inactive”; as for FTIGNTA, “inactive”. For GVHDRLTVSRFCLGVNGDGV, the amyloid nucleation score result is “inactive”.

For SCYISNFLSGCKLFMNRFL, the amyloid nucleation score result is “inactive”.

For EVLEFVSNGGMVTEMGP, the amyloid nucleation score entry is “inactive”. Substance CMFCLPMGNSIRGLGNRNSV displayed an amyloid nucleation score of 1.87 ± 0.074. Take SYAGKGLTLQTHHDWRSGNG: the amyloid nucleation score entry is “inactive”.

Substance WMMMNFHLSMQD showed an amyloid nucleation score of 1.6 ± 0.087. CMLCTQLHNNRRKKSKMCWS: the amyloid nucleation score entry is “inactive”. As for HSKFWFCLFRIFQVSGLFNR, the entry is “inactive”; as for SSVSFVITGPVAFVWNQGLV, 2.56 ± 0.083. Take HPESCPGLGSLSGEPR: the amyloid nucleation score entry was “inactive”. As for ACLFCLGDWEGFVSD, the amyloid nucleation score entry is “inactive”. Take RCGTLYRGG: the amyloid nucleation score result was “inactive”.

As to IFWHQRRLMTCCNKYTFGYG, the amyloid nucleation score result is “inactive”. The substance VITTVTTWGLRAGDVMRRTR yielded an amyloid nucleation score of 1.11 ± 0.17. Take TGVSVECLLLWSWSVVWRCM: the amyloid nucleation score entry was “inactive”. To SFYSNFRESRDLSSYTLNIS belongs “inactive”; to LFGFQNDCYMDNRYW, “inactive”. With RVSRAGMIMGPMLLFNKYFD, the amyloid nucleation score entry was “inactive”. As for RHDCIYRKV, the entry is “inactive”; as for NFIALSLFKLVCSAEICWLN, 0.617 ± 0.39; as for EWFCLCWT, “inactive”.

With DSISCCSPNITAYEFYGLTG, the amyloid nucleation score was 2.06 ± 0.066. Regarding SFMKQIFSYARLVRISKSVG, the amyloid nucleation score result is “inactive”.

Consider CYGKLDGMTNDEEGTPVFAN, for which the amyloid nucleation score result was “inactive”. In the case of LYRVVYFDALKNCGYVVSFW, the amyloid nucleation score result is “inactive”. To CMGACLAGDTCKWIRQHLSG belongs “inactive”; to CYWKLYCGNEYYGVSFMGVL, “inactive”; to YNRLIMSSELSMIGTTCISY, “inactive”. With FLVCSGSNVWTREASHGGGN, the amyloid nucleation score is -0.188 ± 0.47.

Consider AHITRGNKSGAVFASCRTWS, for which the amyloid nucleation score entry was “inactive”. To SQYHQASNAMWVLFSGI belongs “inactive”. As to LACPWLTLIGYVQIRCNFDG, the amyloid nucleation score result was “inactive”. LYKSNPLFPCQFCLISGKFC had an amyloid nucleation score of 0.868 ± 0.12. Regarding YRPGW, the amyloid nucleation score result is “inactive”.

For the substance LTKYRGPQDVRNAFSCSNIM, the amyloid nucleation score result was “inactive”. Regarding YQGAFS, the amyloid nucleation score came to 0.341 ± 0.83. Consider FLRRGCLFRQT, for which the amyloid nucleation score entry was “inactive”.

The substance IRPSLLMSLQNNDMMADLEV came in with an amyloid nucleation score of -0.538 ± 0.55. Consider GVFGESS, for which the amyloid nucleation score result is “inactive”. Turning to GVYVWFAALNNPTVEGFLNS, the amyloid nucleation score result was “inactive”.

Regarding RFSMNASYFYYVIMFSDCYS, the amyloid nucleation score result was “inactive”. As for CFSNLGCTGWRT, the figure is -0.684 ± 1.2; as for LMETSSRYTFYMKGLHRTMS, 0.428 ± 0.27; as for ATEDPKLESGCVAEIVPFRG, -0.481 ± 1.4.

Take VRLVAMCWGHLDKNRALRRG: the amyloid nucleation score result was “inactive”. As for WYAKCCKV, the amyloid nucleation score result is “inactive”. As to GDSLGGTYYLLRSFFCCRDL, the amyloid nucleation score entry was “inactive”.

As for YLKVADVSLHLSHDLTYLLM, the amyloid nucleation score entry was “inactive”. As for SGSLHACLALWTLTTYCVST, the entry is “inactive”; as for SILTMLPKFGFVESLLECEG, “inactive”. For KYYLALIYSKLRMIVSCFGF, the amyloid nucleation score was determined as 0.033 ± 0.44.

As to HLSYKSQLS, the amyloid nucleation score entry was “inactive”.

In the case of VLVAHMRGEPGVANEWPLFQ, the amyloid nucleation score entry is “inactive”. Regarding KVYSIYTNKNFGCFDYNWCI, the amyloid nucleation score entry is “inactive”. To CYRISSESWSTWWIYFWSCR belongs “inactive”; to EVFHIRMSVF, -0.577 ± 2.4; to GSTTWYDLMIYLDME, “inactive”. Take LCWPGTVDWFQGWRKAG: the amyloid nucleation score entry is “inactive”. Turning to TVERILC, the amyloid nucleation score entry is “inactive”. To LIRVGKDRVVSMEEVRCLLR belongs “inactive”; to NKMDSKYPGRLCLMWGW, 0.48 ± 0.19. Regarding YWMNERLTSSKYDAGR, the amyloid nucleation score result is “inactive”. In the case of TSKRDYDRCRFL, the amyloid nucleation score result was “inactive”.

For VFEHVGWNPHVRYTVNR, the amyloid nucleation score entry is “inactive”.
